Holding throughout (test): holdup assay
What all share (set-up): key: below the threshold = too weak to quantify, mostly under pKd 3.1 to 4
Holding throughout (details): plain residues with an end cap or a label only (N-terminal biotin on a linker: ado-ado)

Assay [1] addresses AHNAK1, Q09666.
The target in assay [2] is T1, APBA3_1, O96018.
T1 sequence (O96018 389-490, limits assumed, looked up): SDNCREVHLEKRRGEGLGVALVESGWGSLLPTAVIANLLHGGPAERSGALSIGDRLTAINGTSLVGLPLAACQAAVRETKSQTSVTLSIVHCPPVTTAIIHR

Assay [3] concerns the target T2, ARHGEF11, O15085.
T2 sequence (O15085 42-136, limits assumed, looked up): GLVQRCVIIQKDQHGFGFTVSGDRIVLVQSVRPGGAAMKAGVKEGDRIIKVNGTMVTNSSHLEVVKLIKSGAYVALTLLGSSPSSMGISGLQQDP

In assay [4] the target is T3, DFNB31_3, Q9P202.
T3 sequence (Q9P202 811-907, limits assumed, looked up): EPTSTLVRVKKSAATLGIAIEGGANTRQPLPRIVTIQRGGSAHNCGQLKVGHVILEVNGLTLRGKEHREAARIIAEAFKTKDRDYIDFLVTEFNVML

Assay [5] deals with DLG1_3, Q12959.
For assay [6], the target named is DLG2_3, Q15700.
Assay [7] addresses T4, DLG3_1, Q92796.
T4 sequence (Q92796 125-227, limits assumed, looked up): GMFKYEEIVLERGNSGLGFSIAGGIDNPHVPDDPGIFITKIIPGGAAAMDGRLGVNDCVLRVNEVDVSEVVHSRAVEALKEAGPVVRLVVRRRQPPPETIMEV

Assay [8] addresses HTRA1, Q92743.
For assay [9], the target named is IL16_3, Q14005.
The target in assay [10] is T5, LIN7A, O14910.
T5 sequence (O14910 103-200, limits assumed, looked up): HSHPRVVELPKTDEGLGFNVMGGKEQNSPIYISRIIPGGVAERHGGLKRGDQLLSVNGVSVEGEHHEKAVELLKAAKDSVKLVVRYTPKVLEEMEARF

Assay [11] deals with T6, LRRC7, Q96NW7.
T6 sequence (Q96NW7 1440-1537, limits assumed, looked up): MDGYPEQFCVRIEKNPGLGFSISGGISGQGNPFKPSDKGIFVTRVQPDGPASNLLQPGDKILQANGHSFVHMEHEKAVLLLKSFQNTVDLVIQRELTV

The target in assay [12] is MAGI2_5, Q86UL8.
In assay [13] the target is MAST1, Q9Y2H9.
Assay [14] has as its target T7, MPDZ_10, O75970.
T7 sequence (O75970 1624-1722, limits assumed, looked up): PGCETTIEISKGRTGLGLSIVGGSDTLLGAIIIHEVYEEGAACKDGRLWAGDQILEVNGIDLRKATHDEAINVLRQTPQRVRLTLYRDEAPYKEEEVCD

The target in assay [15] is T8, MPDZ_12, O75970.
T8 sequence (O75970 1857-1958, limits assumed, looked up): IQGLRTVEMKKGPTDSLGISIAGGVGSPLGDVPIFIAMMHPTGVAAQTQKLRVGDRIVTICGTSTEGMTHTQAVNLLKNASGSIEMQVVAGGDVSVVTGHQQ

Assay [16] deals with T9, MPDZ_5, O75970.
T9 sequence (O75970 695-796, limits assumed, looked up): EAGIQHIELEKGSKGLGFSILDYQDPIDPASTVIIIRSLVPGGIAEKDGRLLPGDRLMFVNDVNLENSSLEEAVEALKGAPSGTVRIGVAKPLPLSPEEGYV

Assay [17] has as its target T10, NHERF3_4, Q5T2W1.
T10 sequence (Q5T2W1 373-468, limits assumed, looked up): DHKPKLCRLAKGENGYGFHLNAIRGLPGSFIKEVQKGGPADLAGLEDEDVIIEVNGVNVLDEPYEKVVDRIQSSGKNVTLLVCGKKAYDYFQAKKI

Assay [18] deals with NHERF4_2, Q86UT5.
Assay [19] deals with NOS1, P29475.
Assay [20] concerns the target T11, PDZRN3_1, Q9UPQ7.
T11 sequence (Q9UPQ7 244-349, limits assumed, looked up): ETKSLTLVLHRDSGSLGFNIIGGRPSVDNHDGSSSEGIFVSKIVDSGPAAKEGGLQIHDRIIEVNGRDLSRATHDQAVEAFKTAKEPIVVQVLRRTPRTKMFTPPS

In assay [21] the target is PICK1, Q9NRD5.
Assay [22] concerns the target PTPN3, P26045.
Assay [23] has as its target TJP1_2, Q07157.
Assay [24] addresses T12, TX1BP3, O14907.
T12 sequence (O14907 10-122, limits assumed, looked up): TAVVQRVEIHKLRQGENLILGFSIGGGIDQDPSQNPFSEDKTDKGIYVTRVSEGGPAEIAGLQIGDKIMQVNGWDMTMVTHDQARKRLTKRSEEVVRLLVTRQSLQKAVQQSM

MAST1, Q9Y2H9, sequence (Q9Y2H9 962-1065): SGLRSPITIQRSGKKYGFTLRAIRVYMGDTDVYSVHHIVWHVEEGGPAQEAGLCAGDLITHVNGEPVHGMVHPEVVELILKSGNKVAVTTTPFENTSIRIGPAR
DLG1_3, Q12959, sequence (Q12959 457-571): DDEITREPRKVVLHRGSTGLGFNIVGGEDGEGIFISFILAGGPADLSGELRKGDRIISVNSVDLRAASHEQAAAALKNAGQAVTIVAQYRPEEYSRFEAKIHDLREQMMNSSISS
NHERF4_2, Q86UT5, sequence (Q86UT5 220-308): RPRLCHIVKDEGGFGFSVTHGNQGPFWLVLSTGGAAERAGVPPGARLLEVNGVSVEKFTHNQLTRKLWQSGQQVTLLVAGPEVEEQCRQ
AHNAK1, Q09666, sequence (Q09666 4-100): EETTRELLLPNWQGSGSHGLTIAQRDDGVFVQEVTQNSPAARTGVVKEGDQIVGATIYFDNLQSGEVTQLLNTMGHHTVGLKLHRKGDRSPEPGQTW
TJP1_2, Q07157, sequence (Q07157 181-274): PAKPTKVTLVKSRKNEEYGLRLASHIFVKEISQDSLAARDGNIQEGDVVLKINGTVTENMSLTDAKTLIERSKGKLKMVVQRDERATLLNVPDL
IL16_3, Q14005, sequence (Q14005 1107-1207): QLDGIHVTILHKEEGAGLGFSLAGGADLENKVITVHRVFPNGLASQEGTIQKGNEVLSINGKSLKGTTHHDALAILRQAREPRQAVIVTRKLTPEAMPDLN
PICK1, Q9NRD5, sequence (Q9NRD5 17-115): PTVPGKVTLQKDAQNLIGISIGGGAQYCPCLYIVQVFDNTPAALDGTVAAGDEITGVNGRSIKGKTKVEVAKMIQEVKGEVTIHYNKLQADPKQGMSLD
HTRA1, Q92743, sequence (Q92743 360-477): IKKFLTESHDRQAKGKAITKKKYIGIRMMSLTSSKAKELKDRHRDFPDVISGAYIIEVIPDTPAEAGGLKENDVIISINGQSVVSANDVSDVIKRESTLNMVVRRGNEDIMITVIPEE
PTPN3, P26045, sequence (P26045 505-587): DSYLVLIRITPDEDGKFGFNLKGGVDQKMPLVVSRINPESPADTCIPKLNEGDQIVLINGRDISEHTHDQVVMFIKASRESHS
NOS1, P29475, sequence (P29475 9-101): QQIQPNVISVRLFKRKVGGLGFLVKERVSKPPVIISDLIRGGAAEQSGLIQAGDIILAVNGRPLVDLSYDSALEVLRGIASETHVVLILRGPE
MAGI2_5, Q86UL8, sequence (Q86UL8 915-1017): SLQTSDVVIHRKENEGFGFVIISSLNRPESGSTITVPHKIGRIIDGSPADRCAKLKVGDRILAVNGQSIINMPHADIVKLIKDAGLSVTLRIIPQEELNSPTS

B1: SCN4B, Q8IWT1 (peptide)
chain: KAEEKPPSKV
On to B1, for which the pKd entry in [1], in [2], in assay [3], in [4], in assay [5] and in assay [6] was “below the threshold” throughout. The pKd entry in assay [7] was “below the threshold”; in [8], “below the threshold”; in [9] it was “below the threshold”; in assay [10], “below the threshold”; in assay [11], “below the threshold”; in [12], 3.51. Further, the pKd in assay [13] is 3.69; in assay [14], 3.71; in [15], 3.49; in assay [16], “below the threshold”; in assay [17] it was “below the threshold”; in assay [18] it was 3.49. Also, the pKd entry was “below the threshold” in assay [19]; “below the threshold” in assay [20]; 4.21 in assay [21]; “below the threshold” in [22]; “below the threshold” in assay [23]; “below the threshold” in [24].

B2: KCNJ9, Q92806 (peptide)
chain: LPPPESESKV
On to B2, for which the pKd result in assay [1] is “below the threshold”; in [2], “below the threshold”; in [3], “below the threshold”; in [4], “below the threshold”; in [5], “below the threshold”; in assay [6], 3.7. Also, the negative logarithm of the Kd (pKd) entry in [7], in [8], in assay [9], in assay [10], in assay [11] and in assay [12] was “below the threshold” throughout. Further, the pKd in [13] is 4.29; in assay [14], “below the threshold”; in [15] it was “below the threshold”; in assay [16] it was “below the threshold”; in [17] it was “below the threshold”; in assay [18], “below the threshold”. Further, the pKd result in assay [19] was “below the threshold”; in [20], “below the threshold”; in assay [21], 4; in assay [22], 4.4; in [23] it was “below the threshold”; in assay [24], “below the threshold”.

B3: RCN2, Q14257 (peptide)
chain: HDDYFYHDEL
Turning to B3, the pKd entry was “below the threshold” in assay [1]; “below the threshold” in assay [2]; 4 in assay [3]; “below the threshold” in assay [4]; “below the threshold” in [5]; “below the threshold” in assay [6]. The pKd result is “below the threshold” in [7]; 3.98 in [8]; “below the threshold” in assay [9]; “below the threshold” in assay [10]; “below the threshold” in [11]; “below the threshold” in assay [12]. Further, the pKd is 4.35 in [13]; “below the threshold” in [14]; “below the threshold” in [15]; “below the threshold” in assay [16]; “below the threshold” in assay [17]; “below the threshold” in assay [18]. Also, the pKd entry was “below the threshold” in [19]; “below the threshold” in assay [20]; “below the threshold” in assay [21]; “below the threshold” in [22]; “below the threshold” in [23]; 3.9 in assay [24].

B4: SLC22A3, O75751 (peptide)
chain: KKTPVSRSHL
For the molecule B4, the pKd entry in [1] is “below the threshold”; in assay [2] it was “below the threshold”; in assay [3], 3.56; in assay [4], “below the threshold”; in [5] it was “below the threshold”; in assay [6] it was “below the threshold”. The pKd result in assay [7] is “below the threshold”; in assay [8], 3.61; in [9] it was “below the threshold”; in [10], “below the threshold”; in assay [11], “below the threshold”; in assay [12], “below the threshold”. In addition, the pKd result in [13], in assay [14], in assay [15], in assay [16], in assay [17] and in assay [18] was “below the threshold” throughout. Also, the pKd entry in assay [19] is “below the threshold”; in assay [20], “below the threshold”; in assay [21] it was “below the threshold”; in assay [22], “below the threshold”; in assay [23] it was “below the threshold”; in [24], 3.53.

As usually defined, the pKd is the negative decadic logarithm of the Kd, by convention in mol/L.
